Experimental data published in the supplement of paper PMC7877785.
± gives the uncertainty stated by the source.

Experiment: self-splicing fitness, log relative to wild type (ln ratio); higher = more splicing; Tetrahymena group I intron in knt gene, E. coli kanamycin selection, DiMSum; sequences stand for … in CUCUCU…GGAGGGAAAAGUUAUCAGGCAUGCACCUGGUAGCUAGUCUUUAAACCAAUAGAUUGCAUCGGUUUAAAAGGCAAGACCGUCAAAUUGCGGGAAAGGGGUCAACAGCCGUUCAGUACCAAGUCUCAGGGGAAACUUUGAGAUGGCCUUGCAAAGGGUAUGGUAAUAAGCUGACGGACAUGGUCCUAACCACGCAGCCAAGUCCUAAGUCAACAGAUCUUCUGUUGAUAUGGAUGCAGUUCACAGACUAAAUGUCGGUCGGGGAAGAUGUAUUCUUCUCAUAAGAUAUAGUCGGACCUCUCCUUAAUGGGAGCUAGCGGAUGAAGUGAUGCAACACUGGAGCCGCUGGGAACUAAUUUGUAUGCGAAAGUAUAUUGAUUAGUUUUGGAGUACUCGUGGUCG
Summary of the method: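 DiMSum derived fitness as the error-weighted combination of fold changes across replicates, kanamycin versus no kanamycin, normalised to wild type. E. coli BL21(DE3) held the library, which randomised all eight P1ex-region intron nucleotides within the knt kanamycin-resistance gene on pET-22b(+). Six replicate transformations grew overnight at 37°C or 30°C on LB agar with or without 25 μg/mL kanamycin, also containing 100 μg/mL carbenicillin, 50 μM IPTG and 0.2% rhamnose, and pooled colonies were amplicon-sequenced on an Illumina HiSeq 2500.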

Sequence	self-splicing fitness (ln) (30 °C)	self-splicing fitness (ln) (37 °C)
UCCAAGCAAUAUUACGUUGC	-3.7 ± 0.17	-2.41 ± 0.19
GUCCAGCAAUAUUACGGCAU	-0.147 ± 0.085	-0.171 ± 0.093
UGCAAGCAAUAUUACGAUUA	-0.19 ± 0.077	0.163 ± 0.092
UCUUAGCAAUAUUACGACAC	-2.77 ± 0.46	-1.65 ± 0.22
AUUAAGCAAUAUUACGUCAC	–	-1.54 ± 0.4
UGAAAGCAAUAUUACGAUAC	-2.87 ± 0.19	-2.8 ± 0.33
AUUUAGCAAUAUUACGUUCG	-1.39 ± 0.11	-0.0499 ± 0.13
CGCGAGCAAUAUUACGCAAG	-2.92 ± 0.27	-2.91 ± 0.43
CUUUAGCAAUAUUACGUAAG	-0.953 ± 0.081	-0.626 ± 0.11
GACCAGCAAUAUUACGGUUC	-5.29 ± 0.25	-2.73 ± 0.14
GUCUAGCAAUAUUACGGCCC	-2.32 ± 0.39	0.974 ± 0.31
UACCAGCAAUAUUACGUAUC	-2.55 ± 0.15	-0.118 ± 0.12
ACUGAGCAAUAUUACGUUUC	-3.19 ± 0.27	-2.6 ± 0.23
GGACAGCAAUAUUACGUGCC	-3.78 ± 0.19	-2.02 ± 0.21
AUGAAGCAAUAUUACGGGUA	-1.01 ± 0.097	-0.761 ± 0.13
CUUCAGCAAUAUUACGAAUG	-0.722 ± 0.065	-0.456 ± 0.093
GUCCAGCAAUAUUACGACCA	-0.7 ± 0.21	-0.517 ± 0.17
CUUAAGCAAUAUUACGCUAA	-3.21 ± 0.39	-1.58 ± 0.3
ACGAAGCAAUAUUACGCGGG	-1.62 ± 0.086	-0.782 ± 0.1
AAGGAGCAAUAUUACGUGUU	-3.55 ± 0.14	-3.5 ± 0.24
AGGCAGCAAUAUUACGUCGG	-0.675 ± 0.08	-0.941 ± 0.09
CUCUAGCAAUAUUACGGAUU	-3.5 ± 0.21	-2.75 ± 0.18
UAAUAGCAAUAUUACGAAUU	–	-2.58 ± 0.24
CGGCAGCAAUAUUACGACUU	-0.541 ± 0.06	-0.196 ± 0.08
UCAUAGCAAUAUUACGAGAC	-2.84 ± 0.31	-2.03 ± 0.34
CGUAAGCAAUAUUACGCAAU	-3.61 ± 0.24	-2.64 ± 0.23

Sequence	self-splicing fitness (ln) (30 °C)	self-splicing fitness (ln) (37 °C)
AUAGAGCAAUAUUACGGAUC	-2.96 ± 0.3	-2.14 ± 0.31
GAUUAGCAAUAUUACGGCGG	-0.96 ± 0.16	-2.17 ± 0.25
GUUUAGCAAUAUUACGAACU	–	-2.69 ± 0.44
CGGGAGCAAUAUUACGAAGU	–	-1.89 ± 0.43
AGGCAGCAAUAUUACGCAAG	-1.22 ± 0.072	-0.387 ± 0.098
UAACAGCAAUAUUACGGGAC	-4.36 ± 0.17	-1.89 ± 0.13
AAUCAGCAAUAUUACGUCAG	-1.86 ± 0.12	-0.81 ± 0.12
CGUAAGCAAUAUUACGCGAU	-3.53 ± 0.2	-1.98 ± 0.18
AGCGAGCAAUAUUACGGGAU	-3.92 ± 0.28	-2.76 ± 0.27
AGCUAGCAAUAUUACGAAAC	–	-1.95 ± 0.43
GAGUAGCAAUAUUACGACCA	-1.81 ± 0.12	0.176 ± 0.15
UACGAGCAAUAUUACGCUAG	–	-1.7 ± 0.46
AUUCAGCAAUAUUACGCAGC	-1.82 ± 0.38	-1.15 ± 0.26
UCCCAGCAAUAUUACGACUU	-3.04 ± 0.17	-1.79 ± 0.14
ACGUAGCAAUAUUACGAACA	-1.56 ± 0.24	-0.252 ± 0.2
CACAAGCAAUAUUACGGAGC	-3.77 ± 0.29	-3.25 ± 0.24
UUAUAGCAAUAUUACGCCUA	-1.55 ± 0.15	0.273 ± 0.2
CUAUAGCAAUAUUACGCGCC	-1.01 ± 0.43	–
ACCGAGCAAUAUUACGGAGC	-3.33 ± 0.18	-1.73 ± 0.13
AACAAGCAAUAUUACGCUAG	-3.74 ± 0.19	-1.98 ± 0.15
CGAAAGCAAUAUUACGAGCU	-2.9 ± 0.12	-1.59 ± 0.13
CUACAGCAAUAUUACGAGAC	-4.15 ± 0.2	-2.59 ± 0.16
UGCUAGCAAUAUUACGGUUC	-2.49 ± 0.16	-1.69 ± 0.14
UGUUAGCAAUAUUACGUAGG	-2.19 ± 0.11	-0.461 ± 0.12
UUUAAGCAAUAUUACGAAUA	-1.09 ± 0.21	-0.334 ± 0.22
CUUAAGCAAUAUUACGCCUU	–	-2.63 ± 0.39

Sequence	self-splicing fitness (ln) (30 °C)	self-splicing fitness (ln) (37 °C)
GUUUAGCAAUAUUACGGCCU	-0.716 ± 0.15	0.714 ± 0.15
CCUCAGCAAUAUUACGGCCG	-2.11 ± 0.1	-0.442 ± 0.11
GAUGAGCAAUAUUACGACCG	-2.84 ± 0.36	-1.95 ± 0.43
GCCAAGCAAUAUUACGGGUA	-0.958 ± 0.052	-0.102 ± 0.062
UCGGAGCAAUAUUACGACAC	-3.18 ± 0.48	-1.19 ± 0.3
ACACAGCAAUAUUACGAACG	-0.869 ± 0.048	-0.185 ± 0.068
CAAGAGCAAUAUUACGCGGC	-3.74 ± 0.31	-3.52 ± 0.28
GGAUAGCAAUAUUACGUUAC	-1.87 ± 0.12	-1.26 ± 0.15
CAUCAGCAAUAUUACGUGAC	-3.66 ± 0.19	-1.2 ± 0.14
UCCCAGCAAUAUUACGCAAA	-2.54 ± 0.18	-0.641 ± 0.14
UUGGAGCAAUAUUACGGGGU	-4.02 ± 0.4	-2.44 ± 0.33
AAGCAGCAAUAUUACGCGAU	-3.31 ± 0.18	-3.25 ± 0.18
ACUGAGCAAUAUUACGCUAU	-3.58 ± 0.15	-2.42 ± 0.14
CCCAAGCAAUAUUACGCUAU	-3.85 ± 0.29	-3.13 ± 0.31
UAAGAGCAAUAUUACGCACG	-2.42 ± 0.15	-1.84 ± 0.15
CAAAAGCAAUAUUACGCGUC	-3.72 ± 0.24	-1.86 ± 0.18
CCCUAGCAAUAUUACGAGCU	-4.02 ± 0.24	-1.87 ± 0.2
AAACAGCAAUAUUACGCGUU	-3.11 ± 0.11	-1.1 ± 0.1
AGCCAGCAAUAUUACGGGAG	-2.56 ± 0.11	-2.17 ± 0.14
CAUAAGCAAUAUUACGCGCC	-3.87 ± 0.4	-1.47 ± 0.34
CGACAGCAAUAUUACGAGAC	-4.34 ± 0.3	-2.57 ± 0.26
AUCAAGCAAUAUUACGCUGC	-2.4 ± 0.41	-0.934 ± 0.33
CCACAGCAAUAUUACGACUC	-2.46 ± 0.18	-2.76 ± 0.3
CAACAGCAAUAUUACGGCGG	-0.393 ± 0.056	0.0944 ± 0.082
GCUGAGCAAUAUUACGUGUU	-3.4 ± 0.2	-2.37 ± 0.21
